The results in this text go back to publication PMC10341521, “Rapid Generation and Molecular Docking Analysis of Single-Chain Fragment Variable (scFv) Antibody Selected by Ribosome Display Targeting Cholecystokinin B Receptor (CCK-BR) for Reduction of Chronic Neuropathic Pain” (International Journal of Molecular Sciences, 2023).

In assay [1] the target is T1, mouse CCK-B receptor peptide (custom 15-amino-acid extracellular mouse sequence) (Mus musculus, UniProt P56481).
T1 construct: 15-amino-acid extracellular stretch of the mouse cholecystokinin B receptor (CCK-BR, CCK2); The docking section names the peptide residues Glu40, Arg45, Arg50 and Glu53, which may be receptor numbering; also called CCK-B peptide; CCK-BR peptide; source: custom 15-amino-acid peptide
T1 chain: CETPRIRGTGTRELE
Kind of assay: ELISA; indirect ELISA of the scFvs on CCK-B receptor peptide, concentration-dependent; apparent affinity; methods in the supplementary section. As to conditions: both partners purified. A general note: In an ELISA, binding on a coated surface is turned into a signal by an enzyme label.

The target in assay [2] is T1, mouse CCK-B receptor peptide (custom …).
The target is the same in assay [3]. Description: BLI; Octet RED384 instrument; scFv77-2 and mouse CCK-B peptide. As to conditions: both partners purified. In general terms: Biolayer interferometry detects binding as a change in optical thickness at a sensor tip.
For assay [4] the target is unchanged. Kind of assay: not stated.
Assay [5] concerns the target T2, mouse CCK-B receptor peptide (custom 15-amino-acid extracellular mouse sequence) (mouse).
T2 chain: CETPRIRGTGTRELE
Kind of assay: BLI.

Like-named read-outs stand apart in the source and are kept apart here.

B1: CCK-B scFv134-1 antibody (scFv, V domains shown)
VH: EVQLQQSGAELVKPGASVKMSCKASGYTFTDYWMHWVKQRPGQGLEWIGAIDTSDSYTSYNQKFKGKATLTVDKSSSTAYIQLSSLTSEDSAVYYCARSEGYLPFDYWGQGTTLTVSS
VL: DVVMTQTPLSLPVSFGDQVSISCRSSQSLANSYGNTYLSWYLHKPGQSPQLLIYGISNRFSGVPDRFSGSGSGTDFTLKISTIKPEDLGMYYCLQGTHQPRTFGGGTKLEIK
notes: VH of scFv134-1; 20-amino-acid flexible linker, printed as the formula [(G4S)4] and written out from it; VL of scFv134-1; One of the panel of 7 anti-CCK-B receptor scFvs; Construct and methods are in the supplementary section; source: E. coli cytoplasm (pET32a expression vector), purified
In the case of B1, the binding result in assay [1] was “binds”.

B2: CCK-BR_scFv13-3 (antibody, V domains shown)
VH: EVQLQQSGAELVKPGASVKMSCKASGYTFTSYWMHWVKQRPGQGLEWIGYINPSTGYTEYNQKFKDKATLTADKSSSTAYMQLSSLTSEDSAVYYCAGDNYGYWYFDVWGAGTTVTVSS
VL: DIVMTQSPSSLSVSAGEKVTMSCKSSQSLLNSGNQKNYLAWYQQKPGQPPKLLIYGASTRESGVPDRFTGSGSGTDFTLTISSVQAEDLAVYYCQNDHSYPYTFGGGTKLEIK
With B2, in assay [2], the binding result is “binds”.

B3: CCK-B scFv77-2 antibody (scFv, V domains shown)
VH: EVQLQQSGAELVRSGASVKLSCTASGFNIKDYYIHWVKQRPEQGLEWIGWIDPENGDTEYAPKFQGKATMTADTSSNTAYLQLSSLTSEDTAVYYCNAGGRFAYWGQGTLVTVSA
VL: B2 VL
notes: VH of scFv77-2; 20-amino-acid flexible linker, printed as the formula [(G4S)4] and written out from it; VL of scFv77-2; Selected by ribosome display from a library of immunised mice; Apparent mass 26 kDa on the gel; The His-tag is named only for the Western blots of tissue after injection; Construct and methods are in the supplementary section; also called CCK-BR scFv 77-2; CCKBR scFv 77-2; …
Turning to B3, the Kd (as a rule, the concentration at which binding is half-saturated) in assay [3] stood at 17.9 nM; in assay [4], 195 nM. The koff (usually the first-order rate constant of dissociation) in assay [5] was determined as 0.000381 s⁻¹.

B4: CCK-BR_scFv93-1 (antibody, V domains shown)
VH: QVQLKESGPGLVAPSQSLSITCTVSGFSLTSYGVHWVRQPPGKGLEWLGVIWAGGSTNYNSALMSRLSISKDNSKSQVFLKMNSLQTDDTAMYYCARGLRGAMDYWGQGTSVTVSS
VL: DIVMTQSPSSLSVSAGEKVTMSCKSSQSLLASGNQNNYLAWHQQKPGRSPKMLIIWASTRESGVPDRFTGSGSGTDFTLTISSVQAEDVAVYYCQNDHSYPFTFGSGTKLEIK
In the case of B4, in assay [2], the binding result is “binds”.

B5: CCK-BR_scFv11-2 (antibody, V domains shown)
VH: QVQLKQSGAELVRPGSSVKISCKASGYAFTNYLIEWVKQRPGQGLEWIGQIYPGDGDTNYNGKFKGKATLTVDNSSSTAYMELRSLTSEDSAVYYCARAATWYYAMDYWGQGTSVTVSS
VL: QIVLTQSPAIMSASPGEKVTITCSASSSVSYMHWFQQKPGTSPKLWIYSTSNLASGVPARFSGSGSGTSYSLTISSMEAEDAASYFCHQWSSYPWTFGGGTKLEIK
For B5, the binding result in assay [2] is “binds”.

B6: CCK-BR_scFv8-3 (antibody, V domains shown)
VH: QVQLKESGAELAKPGASVKMSCKASGYTFTSYWMHWVKQRPGQGLEWIGYINPSTGYTEYNQKFKDKATLTADKSSSTAYMQLSSLTSEDSAVYYCARDYGSSFDYWGQGTTLTVSS
VL: DVVMTQTPLTLSVTIGQPASISCKSSQSLLDSGNQKNYLAWYQQKPGQPPKLLIYGASTRESGVPDRFTGSGSGTDFTLTISSVQAEDLAVYYCQNDHSYPYTFGGGTKLEIK
As to B6, the binding result in assay [2] is “binds”.
